Like-named read-outs stand apart in the source and are kept apart here.
Tested on: nontumor-bearing mice
Assay type: in vivo
Conditions: for median survival / MTD: nontumor-bearing mice; for survival rate at 90 days post-treatment: n=8; for MTD: 90 days, n=8/cohort
Method: MTD was defined as the highest dose given to the animals allowing 100% survival with no significant weight loss >15% throughout the experiment. Nontumor-bearing mice were randomly divided into seven cohorts used to evaluate MTD, six treatments and one control (n = 8/cohort); see Table 1. […] Control mice received DOTATATE (4 × 0.3 nmol) on four consecutive days. The animals were followed for 90 days. Serum was analyzed for the biomarker neutrophil gelatinase-associated lipocalin (NGAL) using ELISA (R&D Systems, 450 nm).

## C[C@@H](O)[C@H](NC(=O)[C@@H]1CSSC[C@H](NC(=O)[C@@H](Cc2ccccc2)NC(=O)CN2CCN(CC(=O)O)CCN(CC(=O)O)CCN(CC(=O)O)CC2)C(=O)N[C@@H](Cc2ccc(O)cc2)C(=O)N[C@H](Cc2c[nH]c3ccccc23)C(=O)N[C@@H](CCCCN)C(=O)N[C@@H]([C@@H](C)O)C(=O)N1)C(=O)O [^213Bi-DOTATATE, metal not drawn]
All treated cohorts except the high-dose without L-lysine
  median survival: > 90 days
high-dose without L-lysine, 28.7 ± 1.2 MBq
  median survival: 24 days
high-dose(+), 28.3 ± 0.8 MBq, with L-lysine
  survival rate at 90 days post-treatment: 75%
high-dose(−), 28.7 ± 1.2 MBq, without L-lysine
  survival rate at 90 days post-treatment: 0%
In absence of L-lysine
  MTD: < 13.0 ± 1.6 MBq
low-dose(+), 13.2 ± 0.9 MBq, with L-lysine
  survival rate at 90 days post-treatment: 100%
low-dose(−), 13.0 ± 1.6 MBq, without L-lysine
  survival rate at 90 days post-treatment: 87.5%
medium-dose(+), 21.7 ± 1.9 MBq, with L-lysine
  survival rate at 90 days post-treatment: 100%
medium-dose(−), 20.7 ± 0.8 MBq, without L-lysine
  survival rate at 90 days post-treatment: 62.5%
With L-lysine renal protection (35 mg i.p.)
  MTD: 21.7 ± 1.9 MBq

From article PMC5118228 (EJNMMI Research, 2016)
